Experimental findings from patent US20110033883A1, “IMAGING DYES AND USE THEREOF” (priority 2007, published 2011) are described below.

Ahx = NCCCCCC(=O)O

The nature of series [1]: pH titration, ground-state pKa (UV/vis absorption, Henderson-Hasselbalch fit). The format is physicochemical. Conditions: absorption at 350 nm vs pH, modified Henderson-Hasselbalch fit. The procedure:
^1H NMR spectra were recorded on a Bruker Advance series 400 MHz NMR spectrometer. The NMR titration experiments were performed following a previously published protocol (Charbonnier and Penades). Mass spectra were acquired using a positive ion mode on a Bruker LC/MS Esquire. Electronic absorption spectra were measured on a Shimadzu 3500 UV-VIS/NIR spectrophotometer. Cyclic voltammetry was carried out using a CH Instruments CH602 electrochemical workstation. A conventional three-electrode cell was used, employing glassy carbon as working, Ag/AgCl as reference or Ag/AgNO3 in acetonitrile, and Pt wire as counter electrodes. Electrochemistry was conducted in water and acetonitrile respectively with 0.1 M phosphate buffer or tetrabutylammonium tetrafluoroborate (TBABF4) as supporting electrolyte under an N2 atmosphere. pH titrations were performed in the pH range 0.5-12. The pH was adjusted by adding aqueous solutions of NaOH or HClO4.
(§1) The pH was adjusted with H2SO4 (Sigma-Aldrich) and KOH (Sigma-Aldrich) and measured with a pH meter. UV/vis absorption spectra during the pH titration experiment were corrected for change in volume.
UV/vis absorption titration curves were fitted with a modified Henderson-Hasselbalch equation which was obtained using Beer-Lambert's law to express the concentration, FIG. 2(b) For fitting the fluorescence titration curve it was assumed that the average lifetime goes linear with the ratio of the two species in equilibrium at the certain pH.
At a shorter wavelength the ππ* transitions centred at the ligands are found: around 350 nm the ππ* transition at the pic ligand, and around 280 nm at the bipyridine ligands. […] The increasing absorption with increasing pH at 350 nm is plotted in FIG. 13B. Fitting this curve with a modified Henderson-Hasselbalch equation results in a pKa1 of 1.72±0.07 and pKa2 of 8.16±0.03. As expected the pH dependence of the other bands is rather minor.

A short description of series [2]: Luminescence intensity as a function of pH, excited state pKa. The settings on record: excitation at isosbestic point, luminescence intensity vs pH. The format is physicochemical. The procedure:
(§2) Resonance Raman spectroscopy was performed on a Horiba Jobin Yvon HR800UV confocal microscope using an Argon ion Laser (458 nm or 514 nm) or a Helium-Neon (HeNe) laser (633 nm) as the exciting wavelength. Ten spectral acquisitions were accumulated and each acquisition was two seconds in length. Steady-state emission spectra were recorded on a Cary Eclipse Fluorescence spectrophotometer, and luminescence lifetimes were obtained using a Picoquant Fluotime 100 TCSPC system exciting at 470 nm and detecting at 600 nm using a narrow band pass dielectric filter. Quantum yields were measured using the comparative method described by Williams et al. In quenching studies, the luminophore/quencher concentrations were corrected for dilution.
as §1
The luminescence wavelength and its intensity are pH dependent. While the emission maximum at pH 7 is at 608 nm, it shifts to higher wavelength with increasing and decreasing pH (λmax (pH 1.3)=623 nm; λmax (pH 11)=616 nm). When the pic ligand is in its neutral state, the luminescence is very bright (Φ=0.06), about 30% more intense than the one of [Ru(bpy)3]^2+. […]

Series [3] in a line: Oxygen quenching of luminescence (Stern-Volmer). The format is physicochemical. On the procedure:
Different oxygen concentrations were adjusted by streaming various O2—N2-mixtures through the solution until equilibrium was reached. The oxygen concentration was measured with an optical O2 electrode (Visiferm DO120, Hamilton). The fluorescence lifetime of the equilibrated dye solutions was measured in a closed-system flow cell.
In air saturated PBS solutions the lifetime drops down to 540 ns when the pic ligand is neutral, and even down to 350 ns, when the pic moiety is deprotonated. Stern-Volmer plots are linear up to air saturated solutions and then start levelling of. The Stern-Volmer quenching constants range actually vary very little with pH 2100 M^−1 for pH 10 to around 2900 M^−1 when the pic moiety is in its neutral state. The corresponding bimolecular rate constants vary between around […] when the pic moiety is deprotonated to […] when the pic moiety is in its neutral state, which is essentially the same within experimental error. This means that within the limited range of the cellular environment the O2 concentration within a cell can be assessed independently of pH using this dye.

Series [4] concerns mouse SP2/0 myeloma cells. Briefly: Resonance Raman mapping of myeloma cells. The format is cell-based. Conditions: myeloma cell incubated for 15 min. The procedure:
as §2
For the fluorescence and fluorescence lifetime experiments 100 μl aliquots were used and incubated with the 3 μl of the Ru-octopeptide (1.2 mM), resulting in a final dye concentration of 3.5×10^−5 M. If only resonance Raman experiments were performed, the cells were incubated in the medium with dye for 15 minutes prior to the washing step.
The resonance Raman maps of the stained myeloma cells were analyzed using the modelling option implemented in the LabSpec software. A model with 4 components was creating, grouping together similar spectra in one component (background, where there is no dye/no cell, outer cell (membrane), cytoplasm and nucleus). […]

In series [1], “[Ru(bpy)2(PicH-R8)]^n+: ruthenium centre with two bipyridine ligands and one picH ligand; octaarginine coupled to pic carboxy end via Ahx spacer, amide linkage ({(Ru(bpy)2(picH))-Ahx}-RRRRRRRR-NH2; also: Ru(bpy)2 picH ruthenium complex attached via Ahx spacer)” showed a pKa1 of 1.72±0.07 and a pKa2 of 8.16±0.03. Further, in series [2], the “excited state pKa2*” value was determined as 8.1±0.2. In addition, the “bimolecular rate constant of oxygen quenching” value in series [3] (pic moiety deprotonated) is on record as “around 3.6×10^−9 M^−1 s^−1”. Moreover, the “bimolecular rate constant of oxygen quenching” value in series [3] (pic moiety in its neutral state) is 3e-09 M⁻¹ s⁻¹. In series [4], the “distribution of the dye inside the cell (Raman map, band at 1487 cm^−1)” value was “distributed throughout the cytoplasm, with less dye in the nucleus”.
